Measured values reported in the supplement of paper PMC6755084.

B1: F1*; the commonest letter at each place (parent)
chain: GAGACCGCAACTGAAAAGTTGTTATCACTTGTCGTAAGACACTTTGGATGGGTTGAAGTTCTGCACGTAGAAGCAAAAGGC

Variants of: B1
Assay: fraction ligated after 30 min (ligated reads / total reads); higher = more ligase activity
Conditions: with F1*sub RNA substrate (template-directed ligation), 42 °C
Description: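 Chip-synthesised pool of F1* ligase ribozyme variants (all single and double substitutions, single, double and triple deletions in the catalytic core and GAA bulge, plus designed variants) was transcribed with T7 and reacted as a pool with excess substrate F1*sub for 30 min at 42 C in 50 mM EPPS pH 8.5, 25 mM MgCl2. Ligated and unligated bands were separated by PAGE, barcoded by RT and deep sequenced; fraction ligated = ligated reads / total reads per variant, relative activity = FL / FL of wild type (0.826). Sequences are the DNA template of the ribozyme.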

Variant	fraction ligated
C28A T29C	0.828
C28A T29A	0.798
C28G T29G	0.789
C28G T29A	0.803
C28G T29C	0.814
C28G G50C	0.19
C28G G50A	0.224
C28G G50T	0.594
C28A G31A	0.84
C28A G31C	0.831
C28A G31T	0.826
C28A C33G	0.813
C28A C33T	0.829
C28A C33A	0.818
C28T T29G	0.825
C28T T29A	0.823
C28T T29C	0.789
C28A G38T	0.799
C28A G38A	0.789
C28A G38C	0.814
C28A A57C	0.776
C28A A57T	0.789
C28A A57G	0.8
C28G G55C	0.28

Variant	fraction ligated
C28G G55A	0.779
C28G G55T	0.763
C28T G34A	0.814
C28T G34C	0.79
C28T G34T	0.802
T29A G31A	0.844
T29A G31C	0.842
T29A G31T	0.845
C28G T32A	0.795
C28G T32G	0.783
C28G T32C	0.723
T29A A56T	0.827
T29A A56G	0.789
T29A A56C	0.799
A27T G34A	0.806
A27T G34T	0.771
A27T G34C	0.795
A27T A57G	0.794
A27T A57C	0.775
A27T A57T	0.804
C28T T44G	0.813
C28T T44C	0.783
C28T T44A	0.816
A27T A41T	0.779

Variant	fraction ligated
A27T A41G	0.776
A27T A41C	0.766
C28A T32A	0.836
C28A T32G	0.812
C28A T32C	0.756
C28A A56G	0.681
C28A A56C	0.718
C28A A56T	0.784
C28T T45C	0.284
C28T T45G	0.0616
C28T T45A	0.532
C28A A36G	0.795
C28A A36C	0.806
C28A A36T	0.811
A27T T35G	0.804
A27T T35A	0.804
A27T T35C	0.811
C28G T44G	0.778
C28G T44A	0.791
C28G T44C	0.778
C28A T30A	0.8
C28A T30G	0.808
C28A T30C	0.804
A27T C40G	0.807

Variant	fraction ligated
A27T C40A	0.856
A27T C40T	0.847
C28G T35A	0.814
C28G T35C	0.802
C28G T35G	0.759
C28G G47A	0.763
C28G G47T	0.591
C28G G47C	0.484
C28T A56T	0.731
C28T A56G	0.567
C28T A56C	0.595
T29A G34A	0.852
C28G T43C	0.798
C28G T43G	0.794
C28G T43A	0.807
C28G A39C	0.759
C28G A39T	0.755
C28G A39G	0.772
A27T T45G	0.16
A27T T45A	0.783
A27T T45C	0.762
C28A T35A	0.792
C28A T35C	0.807
C28A T35G	0.812

Variant	fraction ligated
C28T G31A	0.81
C28T G31C	0.828
C28T G31T	0.826
C28A C42A	0.803
C28A C42T	0.823
C28A C42G	0.81
A27T A56G	0.791
A27T A56T	0.792
A27T A56C	0.787
T29A A48G	0.803
T29A A48T	0.801
T29A A48C	0.761
C28A G34C	0.779
C28A G34A	0.812
C28A G34T	0.808
C28T T35C	0.789
C28T T35A	0.802
C28T T35G	0.785
A27T C42A	0.809
A27T C42G	0.819
A27T C42T	0.822
T29A A41G	0.816
T29A A41T	0.827
T29A A41C	0.801

Variant	fraction ligated
A27T T43A	0.799
A27T T43G	0.784
A27T T43C	0.761
A27T T30A	0.775
A27T T30C	0.804
A27T T30G	0.84
C28G G31T	0.833
C28G G31C	0.81
C28G G31A	0.799
C28T A37T	0.81
C28T A37G	0.8
C28T A37C	0.799
A27T A39T	0.783
A27T A39G	0.84
C28T A39C	0.795
C28T A39G	0.796
C28T A39T	0.796
C28G C40G	0.812
C28G C40T	0.806
C28G C40A	0.791
C28A G46T	0.803
C28A G46C	0.79
C28A G46A	0.829
C28A A48T	0.424

Variant	fraction ligated
C28A A48G	0.784
C28A A48C	0.477
T29A A57C	0.818
T29A A57G	0.818
T29A A57T	0.813
A27T G55C	0.749
A27T G55A	0.812
A27T G55T	0.789
A27T T32C	0.755
A27T T32G	0.838
A27T T32A	0.874
A27T G31T	0.862
A27T G31C	0.864
A27T G31A	0.848
C28G	0.797
C28T	0.812
C28A	0.809
T29A C40A	0.851
T29A C40T	0.857
T29A C40G	0.854
C28T C33T	0.822
C28T C33A	0.816
C28T C33G	0.809
